# Assay results: publication doi:10.1101/2021.04.08.438944
# Key:
# [1] = molecular target: DNAJB14-ΔDUF tagged with FLAG (human); assay: co-IP
# [2] = molecular target: DNAJB14-ΔDUF tagged with FLAG (human); assay: co-IP; remark: listed apart in the source
# Sequence of DNAJB14-ΔDUF tagged with FLAG (human) (Q8TBM8 whole entry, stated change not applied): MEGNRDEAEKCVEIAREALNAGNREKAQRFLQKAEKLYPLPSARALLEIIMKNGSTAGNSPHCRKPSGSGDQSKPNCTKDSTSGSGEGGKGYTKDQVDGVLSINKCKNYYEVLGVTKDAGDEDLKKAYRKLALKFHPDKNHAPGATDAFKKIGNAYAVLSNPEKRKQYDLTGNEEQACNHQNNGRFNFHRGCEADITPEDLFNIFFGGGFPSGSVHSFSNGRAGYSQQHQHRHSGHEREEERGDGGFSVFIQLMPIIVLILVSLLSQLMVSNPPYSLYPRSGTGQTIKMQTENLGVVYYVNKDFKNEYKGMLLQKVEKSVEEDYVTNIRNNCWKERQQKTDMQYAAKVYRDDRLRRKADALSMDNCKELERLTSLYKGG
interaction left relative to DNAJB14-FL (co-IP densitometry) [1] [%],fold lower than DNAJB14-FL (co-IP densitometry) [2] [fold lower],Molecule
50,,HSP70 (from UniProt P0DMV8 1-641) (natural protein)
,3,DNAJB12-FL tagged with mOrange (natural protein) MESNKDEAERCISIALKAIQSNQPDRALRFLEKAQRLYPTPRVRALIESLNQKPQTAGDQPPPTDTTHATHRKAGGTDAPSANGEAGGESTKGYTAEQVAAVKRVKQCKDYYEILGVSRGASDEDLKKAYRRLALKFHPDKNHAPGATEAFKAIGTAYAVLSNPEKRKQYDQFGDDKSQAARHGHGHGDFHRGFEADISPEDLFNMFFGGGFPSSNVHVYSNGRMRYTYQQRQDRRDNQGDGGLGVFVQLMPILILILVSALSQLMVSSPPYSLSPRPSVGHIHRRVTDHLGVVYYVGDTFSEEYTGSSLKTVERNVEDDYIANLRNNCWKEKQQKEGLLYRARYFGDTDMYHRAQKMGTPSCSRLSEVQASLHG
